The values that follow come from article PMC3223026 (Journal of molecular biology, 2011).

B2: bacteriophage φ6 protein P1 (capsid shell), wild type (natural protein, UniProt P11126 1-769, looked up)
chain: MFNLKVKDLNGSARGLTQAFAIGELKNQLSVGALQLPLQFTRTFSASMTSELLWEVGKGNIDPVMYARLFFQYAQAGGALSVDELVNQFTEYHQSTACNPEIWRKLTAYITGSSNRAIKADAVGKVPPTAILEQLRTLAPSEHELFHHITTDFVCHVLSPLGFILPDAAYVYRVGRTATYPNFYALVDCVRASDLRRMLTALSSVDSKMLQATFKAKGALAPALISQHLANAATTAFERSRGNFDANAVVSSVLTILGRLWSPSTPKELDPSARLRNTNGIDQLRSNLALFIAYQDMVKQRGRAEVIFSDEELSSTIIPWFIEAMSEVSPFKLRPINETTSYIGQTSAIDHMGQPSHVVVYEDWQFAKEITAFTPVKLANNSNQRFLDVEPGISDRMSATLAPIGNTFAVSAFVKNRTAVYEAVSQRGTVNSNGAEMTLGFPSVVERDYALDRDPMVAIAALRTGIVDESLEARASNDLKRSMFNYYAAVMHYAVAHNPEVVVSEHQGVAAEQGSLYLVWNVRTELRIPVGYNAIEGGSIRTPEPLEAIAYNKPIQPSEVLQAKVLDLANHTTSIHIWPWHEASTEFAYEDAYSVTIRNKRYTAEVKEFELLGLGQRRERVRILKPTVAHAIIQMWYSWFVEDDRTLAAARRTSRDDAEKLAIDGRRMQNAVTLLRKIEMIGTTGIGASAVHLAQSRIVDQMAGRGLIDDSSDLHVGINRHRIRIWAGLAVLQMMGLLSRSEAEALTKVLGDSNALGMVVATTDIDPSL
B3: bacteriophage φ6 protein P1 with the E390A substitution (natural protein, UniProt P11126 1-769, looked up)
chain: MFNLKVKDLNGSARGLTQAFAIGELKNQLSVGALQLPLQFTRTFSASMTSELLWEVGKGNIDPVMYARLFFQYAQAGGALSVDELVNQFTEYHQSTACNPEIWRKLTAYITGSSNRAIKADAVGKVPPTAILEQLRTLAPSEHELFHHITTDFVCHVLSPLGFILPDAAYVYRVGRTATYPNFYALVDCVRASDLRRMLTALSSVDSKMLQATFKAKGALAPALISQHLANAATTAFERSRGNFDANAVVSSVLTILGRLWSPSTPKELDPSARLRNTNGIDQLRSNLALFIAYQDMVKQRGRAEVIFSDEELSSTIIPWFIEAMSEVSPFKLRPINETTSYIGQTSAIDHMGQPSHVVVYEDWQFAKEITAFTPVKLANNSNQRFLDVAPGISDRMSATLAPIGNTFAVSAFVKNRTAVYEAVSQRGTVNSNGAEMTLGFPSVVERDYALDRDPMVAIAALRTGIVDESLEARASNDLKRSMFNYYAAVMHYAVAHNPEVVVSEHQGVAAEQGSLYLVWNVRTELRIPVGYNAIEGGSIRTPEPLEAIAYNKPIQPSEVLQAKVLDLANHTTSIHIWPWHEASTEFAYEDAYSVTIRNKRYTAEVKEFELLGLGQRRERVRILKPTVAHAIIQMWYSWFVEDDRTLAAARRTSRDDAEKLAIDGRRMQNAVTLLRKIEMIGTTGIGASAVHLAQSRIVDQMAGRGLIDDSSDLHVGINRHRIRIWAGLAVLQMMGLLSRSEAEALTKVLGDSNALGMVVATTDIDPSL

Assay in all cases: cryo-EM structure
The target in series [1] is B3.
Series [2] concerns the molecule itself.
Series [3] addresses B2.
Series [4] concerns the molecule itself. The source holds these as a separate data set.

Like-named read-outs stand apart in the source and are kept apart here.

B1: bacteriophage φ6 protein P4 (packaging motor, packaging NTPase) (enzyme, UniProt P11125 1-332, looked up)
chain: MPIVVTQAHIDRVGIAADLLDASPVSLQVLGRPTAINTVVIKTYIAAVMELASKQGGSLAGVDIRPSVLLKDTAIFTKPKAKSADVESDVDVLDTGIYSVPGLARKPVTHRWPSEGIYSGVTALMGATGSGKSITLNEKLRPDVLIRWGEVAEAYDELDTAVHISTLDEMLIVCIGLGALGFNVAVDSVRPLLFRLKGAASAGGIVAVFYSLLTDISNLFTQYDCSVVMVVNPMVDAEKIEYVFGQVMASTVGAILCADGNVSRTMFRTNKGRIFNGAAPLAADTHMPSMDRPTSMKALDHTSIASVAPLERGSVDTDDRNSAPRRGANFSL
B1: the binding result (in series [1]; in the series “cryo-EM structure [2]”; in series [3]) was “binds” in each case.

Turning to B2, in “cryo-EM structure [2]”, the binding result is on record as “binds”.

Take B3: the binding result in “cryo-EM structure [4]” is “binds”.

B4: bacteriophage φ6 protein P2 (RNA-dependent RNA polymerase) (enzyme, UniProt P11124 1-665, looked up)
chain: MPRRAPAFPLSDIKAQMLFANNIKAQQASKRSFKEGAIETYEGLLSVDPRFLSFKNELSRYLTDHFPANVDEYGRVYGNGVRTNFFGMRHMNGFPMIPATWPLASNLKKRADADLADGPVSERDNLLFRAAVRLMFSDLEPVPLKIRKGSSTCIPYFSNDMGTKIEIAERALEKAEEAGNLMLQGKFDDAYQLHQMGGAYYVVYRAQSTDAITLDPKTGKFVSKDRMVADFEYAVTGGEQGSLFAASKDASRLKEQYGIDVPDGFFCERRRTAMGGPFALNAPIMAVAQPVRNKIYSKYAYTFHHTTRLNKEEKVKEWSLCVATDVSDHDTFWPGWLRDLICDELLNMGYAPWWVKLFETSLKLPVYVGAPAPEQGHTLLGDPSNPDLEVGLSSGQGATDLMGTLLMSITYLVMQLDHTAPHLNSRIKDMPSACRFLDSYWQGHEEIRQISKSDDAILGWTKGRALVGGHRLFEMLKEGKVNPSPYMKISYEHGGAFLGDILLYDSRREPGSAIFVGNINSMLNNQFSPEYGVQSGVRDRSKRKRPFPGLAWASMKDTYGACPIYSDVLEAIERCWWNAFGESYRAYREDMLKRDTLELSRYVASMARQAGLAELTPIDLEVLADPNKLQYKWTEADVSANIHEVLMHGVSVEKTERFLRSVMPR
Take B4: in series [1], the binding result was “binds”.
